The target in this test is human CD47 on CCRF-CEM cells (human) (UniProt Q08722). As to the kind of experiment: flow cytometry on CCRF-CEM cells, MFI against concentration, one site specific binding with Hill slope. In general terms: A flow cytometer gives signals particle by particle.

What is called Kd is the constant that tells how readily two partners part at equilibrium. Low values mean higher affinity, high ones lower affinity.

B1: B6H12, mu anti-hu CD47 (antibody, from another filing, V domains shown)
VH: EVQLVESGGDLVKPGGSLKLSCAASGFTFSGYGMSWVRQTPDKRLEWVATITSGGTYTYYPDSVKGRFTISRDNAKNTLYLQIDSLKSEDTAIYFCARSLAGNAMDYWGQGTSVTVSS
VL: DIVMTQSPATLSVTPGDRVSLSCRASQTISDYLHWYQQKSHESPRLLIKFASQSISGIPSRFSGSGSGSDFTLSINSVEPEDVGVYYCQNGHGFPRTFGGGTKLEIK
For B1, the dissociation constant (Kd) was 16 nM.

The record behind these values is patent publication US20170369572A1.
